In paper doi:10.1101/2023.01.08.523168 (bioRxiv, 2023):
Where two headings read alike, the source gives them in different places. No end group written: not given here. *: point of attachment. Oxazole(5-CO) = O=C(c1cnco1)*; Crotonyl(E) = C/C=C/C(=O)*; 2Furoyl = O=C(c1ccco1)*; Butyryl = CCCC(=O)*

Tests used:
AF9 YEATS domain [1] = target: T1, AF9 YEATS domain (human, UniProt P42568 1-138); experiment: AlphaScreen or HTRF
T1 sequence (looked up): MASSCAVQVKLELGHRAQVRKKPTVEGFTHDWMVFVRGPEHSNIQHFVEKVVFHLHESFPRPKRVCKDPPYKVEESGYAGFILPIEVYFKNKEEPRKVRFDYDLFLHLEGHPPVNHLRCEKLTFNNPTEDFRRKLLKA

[2] = target: T2, 6x His-tagged ENL YEATS domain (human, UniProt Q03111 1-138); experiment: BLI
T2 sequence (looked up): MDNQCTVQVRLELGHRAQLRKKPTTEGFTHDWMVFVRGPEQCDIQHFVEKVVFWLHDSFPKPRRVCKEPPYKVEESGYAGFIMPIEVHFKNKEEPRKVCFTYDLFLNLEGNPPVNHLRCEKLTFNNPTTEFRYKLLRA

AF9 YEATS domain [3] = target: T1, AF9 YEATS domain; experiment: BLI
[4] = target: T2, 6x His-tagged ENL YEATS domain; experiment: AlphaScreen or HTRF
[5] = target: T3, NanoLuc luciferase (NLuc)-ENL YEATS fusion protein (human, UniProt Q03111 1-148); experiment: FRET or BRET
T3 sequence (looked up): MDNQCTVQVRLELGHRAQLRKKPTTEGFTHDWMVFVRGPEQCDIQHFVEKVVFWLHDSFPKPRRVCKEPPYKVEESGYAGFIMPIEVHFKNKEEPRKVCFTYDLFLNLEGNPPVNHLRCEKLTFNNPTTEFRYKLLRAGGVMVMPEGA

[6] = target: T3, NanoLuc luciferase (NLuc)-ENL YEATS …; experiment: FRET or BRET; remark: listed apart in the source
[7] = target: T3, NanoLuc luciferase (NLuc)-ENL YEATS …; experiment: FRET or BRET; remark: listed apart in the source

**Q.** YDVYCYK(Crotonyl(E))-NH2 [ENL-S1c] was tested. Which “fold lower potency (IC50) toward AF9 YEATS than toward ENL YEATS” value (AF9 YEATS domain [1]) did it give?
**A.** 18 fold

**Q.** What about the Kd [2] of the same binder?
**A.** 0.0162 µM

**Q.** What about the Kd (AF9 YEATS domain [3]) of the same binder?
**A.** 0.147 µM

**Q.** What about the IC50 [4] of the same binder?
**A.** 0.02 µM

**Q.** Which results are given for YDVYCYK(2Furoyl)-NH2 [ENL-S1f]?
**A.** fold lower potency (IC50) toward AF9 YEATS than toward ENL YEATS (AF9 YEATS domain [1]): 7.7 fold; Kd [2]: 0.0103 µM; Kd (AF9 YEATS domain [3]): 0.144 µM; IC50 [4]: 0.022 µM

**Q.** For YDVYCYK(Oxazole(5-CO))-NH2 [ENL-S1o], which “fold lower potency (IC50) toward AF9 YEATS than toward ENL YEATS” value (AF9 YEATS domain [1]) is on record?
**A.** 23 fold

**Q.** What about the Kd [2] of the same binder?
**A.** 0.002 µM

**Q.** And the Kd (AF9 YEATS domain [3])?
**A.** 0.0551 µM

**Q.** What about the IC50 [4] of the same binder?
**A.** 0.01 µM

**Q.** What does the source list for YDVYCYK(Butyryl)-NH2 [ENL-S1]?
**A.** fold lower potency (IC50) toward AF9 YEATS than toward ENL YEATS (AF9 YEATS domain [1]): 4 fold; Kd [2]: 0.0363 µM; koff [2]: 0.00226 s⁻¹; kon [2]: 62300 M⁻¹ s⁻¹; Kd (AF9 YEATS domain [3]): 0.205 µM; IC50 [4]: 0.063 µM

**Q.** WWIIEK(Butyryl)G-NH2 [ENL-S2] was tested. Which Kd [2] did it give?
**A.** 0.881 µM

**Q.** And the koff [2]?
**A.** 0.00554 s⁻¹

**Q.** What about the kon [2] of the same binder?
**A.** 6290 M⁻¹ s⁻¹

**Q.** What about the IC50 [4] of the same binder?
**A.** 1.22 µM

**Q.** How did the “fold selectivity for ENL YEATS over AF9” value (AF9 YEATS domain [3]) turn out when Ac-VYCYK(2Furoyl)-NH2 [tENL-S1f] was run?
**A.** 12 fold

**Q.** What about the IC50 [5] of the same binder?
**A.** 4.1 ± 1.1 µM

**Q.** And the IC50 [6]?
**A.** 4.2 ± 1.1 µM

**Q.** What about the IC50 [7] of the same binder?
**A.** 6.4 ± 1.6 µM
